# Laboratory results as given in patent publication US20070212390A1.
# B1: VEGF-D ΔN.IISS (human VEGF-D with R204,205S point mutations and lacking the N-terminal propeptide), O43915 87-354 (ligand)
# chain: ARQDYKDDDDKTRFAATFYDIETLKVIDEEWQRTQCSPRETCVEVASELGKSTNTFFKPPCVNVFRCGGCCNEESLICMNTSTSYISKQLFEISVPLTSVPELVPVKVANHTGCKCLPTAPRHPYSIISSSIQIPEEDRCSHSKKLCPIDMLWDSNKCKCVLQEENPLAGTEDHSHLQEPALCGPHMMFDEDRCECVCKTPCPKDLIQHPKNCSCFECKESLETCCQKHKLFHPDTCSCEDRCPFHTRPCASGKTACAKHCRFPKEKRAAQGPHSRKNP
# Columns and labels:
# [1] = target: chimeric receptor consisting of the extracellular domain of human VEGFR-3 and the cytoplasmic domain of the erythropoietin receptor, on Ba/F3 cells (human), P35916; test: cell-based or functional assay
# Chain of chimeric receptor consisting of the extracellular domain of human VEGFR-3 and the cytoplasmic domain of the erythropoietin receptor, on Ba/F3 cells (human), P35916 (P35916 25-775 limits assumed, change not shown, form in doubt): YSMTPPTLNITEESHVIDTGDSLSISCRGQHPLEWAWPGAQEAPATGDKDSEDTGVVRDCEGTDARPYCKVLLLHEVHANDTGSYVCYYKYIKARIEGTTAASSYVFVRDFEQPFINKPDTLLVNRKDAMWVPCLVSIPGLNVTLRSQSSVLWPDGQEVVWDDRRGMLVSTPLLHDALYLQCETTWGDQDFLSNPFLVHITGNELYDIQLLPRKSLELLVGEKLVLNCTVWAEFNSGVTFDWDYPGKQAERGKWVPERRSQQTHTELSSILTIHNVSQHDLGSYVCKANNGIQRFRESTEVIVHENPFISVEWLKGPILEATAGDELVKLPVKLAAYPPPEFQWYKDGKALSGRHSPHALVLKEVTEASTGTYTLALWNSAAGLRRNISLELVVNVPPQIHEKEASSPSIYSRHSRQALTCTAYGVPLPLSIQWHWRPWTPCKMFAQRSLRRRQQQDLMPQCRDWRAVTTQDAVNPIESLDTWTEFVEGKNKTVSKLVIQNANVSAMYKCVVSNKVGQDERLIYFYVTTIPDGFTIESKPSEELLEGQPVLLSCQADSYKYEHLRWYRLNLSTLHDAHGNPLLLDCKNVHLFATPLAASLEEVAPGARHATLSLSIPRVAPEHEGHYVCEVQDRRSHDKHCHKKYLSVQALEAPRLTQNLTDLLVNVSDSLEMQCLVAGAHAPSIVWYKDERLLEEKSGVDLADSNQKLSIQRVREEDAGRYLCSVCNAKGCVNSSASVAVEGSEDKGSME
# [2] = target: chimeric receptor consisting of the extracellular domain of mouse VEGFR-2 and the cytoplasmic domain of the erythropoietin receptor, on Ba/F3 cells (mouse), P35918; test: cell-based or functional assay
# Chain of chimeric receptor consisting of the extracellular domain of mouse VEGFR-2 and the cytoplasmic domain of the erythropoietin receptor, on Ba/F3 cells (mouse), P35918 (P35918 20-762 limits assumed, change not shown, form in doubt): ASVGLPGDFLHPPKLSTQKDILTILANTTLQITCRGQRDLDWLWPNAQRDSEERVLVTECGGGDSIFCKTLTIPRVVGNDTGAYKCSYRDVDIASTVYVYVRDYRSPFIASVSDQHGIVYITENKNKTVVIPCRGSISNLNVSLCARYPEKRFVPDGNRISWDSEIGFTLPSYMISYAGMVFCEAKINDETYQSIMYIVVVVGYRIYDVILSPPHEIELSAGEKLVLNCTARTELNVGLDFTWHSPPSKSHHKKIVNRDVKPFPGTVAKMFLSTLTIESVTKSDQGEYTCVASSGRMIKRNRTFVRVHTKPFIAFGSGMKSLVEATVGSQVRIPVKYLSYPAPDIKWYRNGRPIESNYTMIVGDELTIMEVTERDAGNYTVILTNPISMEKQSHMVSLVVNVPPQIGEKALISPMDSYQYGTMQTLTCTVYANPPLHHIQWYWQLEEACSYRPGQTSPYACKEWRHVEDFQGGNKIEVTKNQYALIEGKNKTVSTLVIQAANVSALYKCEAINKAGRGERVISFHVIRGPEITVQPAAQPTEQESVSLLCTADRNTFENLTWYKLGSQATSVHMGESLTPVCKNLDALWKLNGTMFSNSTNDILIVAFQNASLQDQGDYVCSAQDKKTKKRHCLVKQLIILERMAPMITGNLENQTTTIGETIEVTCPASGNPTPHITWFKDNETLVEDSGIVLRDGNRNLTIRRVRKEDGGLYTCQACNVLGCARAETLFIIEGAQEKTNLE
binder,measurement,setting,value
B1,"activity in VEGFR-3 bioassay (Ba/F3 cell survival and proliferation, tritiated-thymidine incorporation)",[1],70 fold
same,"activity in VEGFR-2 bioassay (Ba/F3 cell survival and proliferation, tritiated-thymidine incorporation)",[2],70 fold
